The values that follow come from PMC6954729, “Type I fatty acid synthase trapped in the octanoyl‐bound state” (Protein Science : A Publication of the Protein Society, 2020).

This data set deals with the molecule itself. Description: crystal structure; crystals grown in 0.2 M potassium-sodium tartrate, 25% (w/v) PEG 3350 at 20°C, soaked with octanoyl-CoA for up to 2 min; 2.7 Å; four chains (A-D) in the asymmetric unit.

B1: murine KS-MAT didomain (condensing part of murine Type I fatty acid synthase), octanoyl-bound (domain or fragment)
chain: EEVVIAGMSGKLPESENLQEFWANLIGGVDMVTDDDRRWKAGLYGLPKRSGKLKDLSKFDASFFGVHPKQAHTMDPQLRLLLEVSYEAIVDGGINPASLRGTNTGVWVGVSGSEASEALSRDPETLLGYSMVGCQRAMMANRLSFFFDFKGPSIALDTACSSSLLALQNAYQAIRSGECPAALVGGINLLLKPNTSVQFMKLGMLSPDGTCRSFDDSGSGYCRSEAVVAVLLTKKSLARRVYATILNAGTNTDGSKEQGVTFPSGEVQEQLICSLYQPAGLAPESLEYIEAHGTGTKVGDPQELNGITRSLCAFRQAPLLIGSTKSNMGHPEPASGLAALTKVLLSLEHGVWAPNLHFHNPNPEIPALLDGRLQVVDRPLPVRGGNVGINSFGFGGSNVHVILQPNTRQAPAPTAHAALPHLLHASGRTLEAVQDLLEQGRQHSQDLAFVSMLNDIAATPTAAMPFRGYTVLGVEGRVQEVQQVSTNKRPLWFICSGMGTQWRGMGLSLMRLDSFRESILRSDEAVKPLGVKVSDLLLSTDERTFDDIVHAFVSLTAIQIALIDLLTSVGLKPDGIIGHSLGEVACGYADGCLSQREAVLAAYWRGQCIKDAHLPPGSMAAVGLSWEECKQRCPAGVVPACHNSEDTVTISGPQAAVNEFVEQLKQEGVFAKEVRTGGLAFHSYFMEGIAPTLLQALKKVIREPRPRSARWLSTSIPEAQWQSSLARTSSAEYNVNNLVSPVLFQEALWHIPEHAVVLEIAPHALLQAVLKRGVKSSCTIIPLMKRDHKDNLEFFLTNLGKVHLTGINVNPNALFPPVEFPAPRGTPLISPHIKWDHSQTWDVPVAEDFPN
modifications: octanoyl covalently bound to C161 (KS, all four chains of the asymmetric unit); octanoyl covalently bound to S581 (MAT, chain D only)
notes: Type I fatty acid synthase (FAS), murine; condensing part with KS, linker domain (LD) and MAT; residues 1-407 and 824-852 (KS) and 488-806 (MAT) are named in superpositions; Wild type; also called murine FAS KS-MAT didomain; Wildtype soaked with octanoyl-CoA; source: E. coli BL21 Gold (DE3), purified (Ni-NTA, Strep-Tactin, SEC)
For the protein B1, the binding result is listed as “binds”.
